Experiments:
Conditions in all cases: 50 mM Tris-HCl pH 8.0, 25°C
[1] = substrate: Oc1ccc(Cl)c(Cl)c1O; test: purified protein
[2] = substrate: Oc1cccc(Cl)c1O; test: purified protein
[3] = substrate: Oc1ccc(Cl)cc1O; test: purified protein
[4] = substrate: Cc1ccc(O)c(O)c1; test: spectrophotometric ring-cleavage assay, A260; assay type: biochemical, Diaphorobacter sp. JS3051
[5] = substrate: Cc1cccc(O)c1O; test: spectrophotometric ring-cleavage assay, A260; assay type: biochemical, Diaphorobacter sp. JS3051
[6] = substrate: Oc1ccccc1O; test: spectrophotometric ring-cleavage assay, A260; assay type: biochemical, Diaphorobacter sp. JS3051

B1: H6-DccA (Diaphorobacter sp. JS3051) (protein)
chain: MDKRVAEVAGAIVEAVRKILLDKRVTEAEYRAGVDYLTEVAQTRETAVLLDAFLNSTIIEGKAQRSRTSAPGMQGPYFLEGAPVVEGVLKTYDTDDHKPLIIRGTVRSDTGELLAGAVIDVWHSTPDGLYSGIHDNIPMDYYRGKLVTDSQGNFRVRTTMPVPYQIPYEGPTGRLLGHLGSHTWRPAHVHFKVRKDGFEPLTTQYYFEGGKWVDDDCCHGVTPDLITPETIEDGVRVMTLDFVIEREQAEQRKSATETVA
notes: full-length gene in pET-28a(+) (NdeI/BamHI), N-terminal 6xHis tag, purified from E. coli BL21(DE3)
- Km [1]: 0.48 ± 0.10 µM
- Vmax [1]: 0.43 µM/min
- kcat [1]: 0.355 s⁻¹
- kcat/Km [1]: 737000 M⁻¹ s⁻¹
- Km [2]: 2.58 ± 0.38 µM
- Vmax [2]: 0.42 µM/min
- kcat [2]: 0.35 s⁻¹
- kcat/Km [2]: 135000 M⁻¹ s⁻¹
- Km [3]: 0.73 ± 0.06 µM
- Vmax [3]: 0.78 µM/min
- kcat [3]: 0.653 s⁻¹
- kcat/Km [3]: 893000 M⁻¹ s⁻¹
- Km [4]: 10.40 ± 1.35 µM
- Vmax [4]: 4.63 µM/min
- kcat [4]: 3.86 s⁻¹
- kcat/Km [4]: 372000 M⁻¹ s⁻¹
- Km [5]: 12.85 ± 1.52 µM
- Vmax [5]: 0.63 µM/min
- kcat [5]: 0.525 s⁻¹
- kcat/Km [5]: 41700 M⁻¹ s⁻¹
- Km [6]: 9.06 ± 0.88 µM
- Vmax [6]: 0.44 µM/min
- kcat [6]: 0.363 s⁻¹
- kcat/Km [6]: 40000 M⁻¹ s⁻¹

From article PMC8406286, “A Recently Assembled Degradation Pathway for 2,3-Dichloronitrobenzene in Diaphorobacter sp. Strain JS3051” (mBio, 2021)
